Literature values in PMC5668312.
pKd: −log10 of the molar value.

Experiments:
CHMP1B (Homo sapiens) = CHMP1B (Homo sapiens) (UniProt Q7LBR1)
[1] = target: Vps2 (Saccharomyces cerevisiae) (UniProt P36108)
Chain of Vps2 (Saccharomyces cerevisiae) (P36108 whole entry): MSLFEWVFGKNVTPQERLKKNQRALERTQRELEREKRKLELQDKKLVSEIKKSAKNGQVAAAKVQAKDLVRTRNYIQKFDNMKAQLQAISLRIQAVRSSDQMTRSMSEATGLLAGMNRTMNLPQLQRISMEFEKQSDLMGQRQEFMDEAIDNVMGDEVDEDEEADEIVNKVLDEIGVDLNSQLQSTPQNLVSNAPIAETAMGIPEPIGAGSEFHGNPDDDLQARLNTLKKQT

Chain of CHMP1B (Homo sapiens) (Q7LBR1 whole entry): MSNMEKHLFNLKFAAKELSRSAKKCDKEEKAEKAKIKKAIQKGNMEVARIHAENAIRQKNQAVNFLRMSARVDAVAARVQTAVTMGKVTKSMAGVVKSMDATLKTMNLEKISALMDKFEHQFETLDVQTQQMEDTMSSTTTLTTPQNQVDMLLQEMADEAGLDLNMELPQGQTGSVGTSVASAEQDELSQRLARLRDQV
Chain of spastin MIT (Q9UBP0 117-198): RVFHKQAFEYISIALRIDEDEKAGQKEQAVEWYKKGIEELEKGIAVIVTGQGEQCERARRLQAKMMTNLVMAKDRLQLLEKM
Chain of Vps4 MIT (P52917 1-83): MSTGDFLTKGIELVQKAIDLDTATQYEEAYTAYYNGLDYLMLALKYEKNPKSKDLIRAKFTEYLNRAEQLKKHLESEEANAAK

spastin MIT (from UniProt Q9UBP0)
pKd (CHMP1B (Homo sapiens)): 4.92

Vps4 MIT (from UniProt P52917)
pKd [1]: 4.52
